Laboratory results as given in US20170101454A1 (Novo Nordisk, published 2017).
Blank lines part the entries; values can stand above or below the binder they belong to. Starred links: 1 amine or outer side, 2 acyl side, 3 side chain; linkers in the order of their positions; H or OH if unused. Non-standard residues stand in square brackets, D forms with d. Groups on a side chain read outwards from the residue. No end group written: not given here. *: point of attachment. C18 diacid = O=C(O)CCCCCCCCCCCCCCCCC(=O)*; γGlu = O=C(O)[C@H](CCC(=O)[*:2])N[*:1]; AEEA = NCCOCCOCC(=O)O; Aib = CC(C)(N)C(=O)O

Assays:
[1] = molecular target: T1, human GLP-1 receptor (human, UniProt P43220 24-463); test: cell-based or functional assay
[2] = molecular target: T2, human glucagon receptor (human, UniProt P47871 26-477); test: cell-based or functional assay
[3] = molecular target: T1, human GLP-1 receptor; test: displacement of [125I]-GLP-1-(7-36)NH2 from BHK membranes with human GLP-1R, SPA, no serum albumin
[4] = molecular target: T2, human glucagon receptor; test: displacement of [125I]-glucagon from BHK membranes with human glucagon receptor, SPA, no serum albumin

T2 sequence (P47871 26-477): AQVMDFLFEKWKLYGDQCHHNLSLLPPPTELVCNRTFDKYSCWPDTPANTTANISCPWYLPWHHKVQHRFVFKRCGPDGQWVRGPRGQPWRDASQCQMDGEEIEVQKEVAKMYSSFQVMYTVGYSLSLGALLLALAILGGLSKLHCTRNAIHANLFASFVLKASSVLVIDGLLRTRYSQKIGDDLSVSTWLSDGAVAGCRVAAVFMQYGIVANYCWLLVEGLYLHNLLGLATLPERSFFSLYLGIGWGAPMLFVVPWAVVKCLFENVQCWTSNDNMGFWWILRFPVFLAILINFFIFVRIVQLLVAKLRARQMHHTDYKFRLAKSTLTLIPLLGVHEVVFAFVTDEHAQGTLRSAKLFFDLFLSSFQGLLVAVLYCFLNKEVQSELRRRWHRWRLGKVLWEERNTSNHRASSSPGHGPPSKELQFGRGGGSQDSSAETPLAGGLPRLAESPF

B1: N^ε28-[2-[2-[2-[[2-[2-[2-[[(4S)-4-carboxy-4-[[(4S)-4-carboxy-4-[[(4S)-4-carboxy-4-(17-carboxyheptadecanoylamino)butanoyl]amino]butanoyl]amino]butanoyl]amino]eth … (peptide)
peptide: H[Aib]QGTFTSDLSKYLDARRARDFVQWLIK([AEEA-AEEA-γGlu-γGlu-γGlu-C18 diacid])T-NH2
modifications: N-terminus assumed
SMILES: CC[C@H](C)[C@H](NC(=O)[C@H](CC(C)C)NC(=O)[C@H](Cc1c[nH]c2ccccc12)NC(=O)[C@H](CCC(N)=O)NC(=O)[C@@H](NC(=O)[C@H](Cc1ccccc1)NC(=O)[C@H](CC(=O)O)NC(=O)[C@H](CCCNC(=N)N)NC(=O)[C@H](C)NC(=O)[C@H](CCCNC(=N)N)NC(=O)[C@H](CCCNC(=N)N)NC(=O)[C@H](C)NC(=O)[C@H](CC(=O)O)NC(=O)[C@H](CC(C)C)NC(=O)[C@H](Cc1ccc(O)cc1)NC(=O)[C@H](CCCCN)NC(=O)[C@H](CO)NC(=O)[C@H](CC(C)C)NC(=O)[C@H](CC(=O)O)NC(=O)[C@H](CO)NC(=O)[C@@H](NC(=O)[C@H](Cc1ccccc1)NC(=O)[C@@H](NC(=O)CNC(=O)[C@H](CCC(N)=O)NC(=O)C(C)(C)NC(=O)[C@@H](N)Cc1c[nH]cn1)[C@@H](C)O)[C@@H](C)O)C(C)C)C(=O)N[C@@H](CCCCNC(=O)COCCOCCNC(=O)COCCOCCNC(=O)CC[C@H](NC(=O)CC[C@H](NC(=O)CC[C@H](NC(=O)CCCCCCCCCCCCCCCCC(=O)O)C(=O)O)C(=O)O)C(=O)O)C(=O)N[C@H](C(N)=O)[C@@H](C)O
notes: also called Chem. 5; Chem 5
GLP-1R EC50 (pM) [Assay (I)(a)], CRE luciferase reporter, BHK cells [1]: 5.5 pM
GlucagonR EC50 (pM), [Assay (I)(b)], CRE luciferase reporter, BHK cells [2]: 29 pM
IC50 [3]: 0.1 nM
IC50 [4]: 6.7 nM

B3: N^ε24-[2-[2-[2-[[2-[2-[2-[[(4S)-4-carboxy-4-[[(4S)-4-carboxy-4-[[(4S)-4-carboxy-4-(17-carboxyheptadecanoylamino)butanoyl]amino]butanoyl]amino]butanoyl]amino]eth … (peptide)
peptide: H[Aib]QGTFTSDYSKYLDARRARDFVK([AEEA-AEEA-γGlu-γGlu-γGlu-C18 diacid])WLIST-NH2
modifications: N-terminus assumed
SMILES: CC[C@H](C)[C@H](NC(=O)[C@H](CC(C)C)NC(=O)[C@H](Cc1c[nH]c2ccccc12)NC(=O)[C@H](CCCCNC(=O)COCCOCCNC(=O)COCCOCCNC(=O)CC[C@H](NC(=O)CC[C@H](NC(=O)CC[C@H](NC(=O)CCCCCCCCCCCCCCCCC(=O)O)C(=O)O)C(=O)O)C(=O)O)NC(=O)[C@@H](NC(=O)[C@H](Cc1ccccc1)NC(=O)[C@H](CC(=O)O)NC(=O)[C@H](CCCNC(=N)N)NC(=O)[C@H](C)NC(=O)[C@H](CCCNC(=N)N)NC(=O)[C@H](CCCNC(=N)N)NC(=O)[C@H](C)NC(=O)[C@H](CC(=O)O)NC(=O)[C@H](CC(C)C)NC(=O)[C@H](Cc1ccc(O)cc1)NC(=O)[C@H](CCCCN)NC(=O)[C@H](CO)NC(=O)[C@H](Cc1ccc(O)cc1)NC(=O)[C@H](CC(=O)O)NC(=O)[C@H](CO)NC(=O)[C@@H](NC(=O)[C@H](Cc1ccccc1)NC(=O)[C@@H](NC(=O)CNC(=O)[C@H](CCC(N)=O)NC(=O)C(C)(C)NC(=O)[C@@H](N)Cc1c[nH]cn1)[C@@H](C)O)[C@@H](C)O)C(C)C)C(=O)N[C@@H](CO)C(=O)N[C@H](C(N)=O)[C@@H](C)O
notes: also called Chem. 1; Chem 1
GLP-1R EC50 (pM) [Assay (I)(a)], CRE luciferase reporter, BHK cells [1]: 3.5 pM
GlucagonR EC50 (pM), [Assay (I)(b)], CRE luciferase reporter, BHK cells [2]: 17.5 pM
IC50 [3]: 0.9 nM
IC50 [4]: 11.3 nM

B4: N^ε24-[2-[2-[2-[[2-[2-[2-[[(4S)-4-carboxy-4-[[(4S)-4-carboxy-4-[[(4S)-4-carboxy-4-(17-carboxyheptadecanoylamino)butanoyl]amino]butanoyl]amino]butanoyl]amino]eth … (peptide)
peptide: H[Aib]QGTFTSDYSKYLESRRARDFVK([AEEA-AEEA-γGlu-γGlu-γGlu-C18 diacid])WLIST-NH2
modifications: N-terminus assumed
SMILES: CC[C@H](C)[C@H](NC(=O)[C@H](CC(C)C)NC(=O)[C@H](Cc1c[nH]c2ccccc12)NC(=O)[C@H](CCCCNC(=O)COCCOCCNC(=O)COCCOCCNC(=O)CC[C@H](NC(=O)CC[C@H](NC(=O)CC[C@H](NC(=O)CCCCCCCCCCCCCCCCC(=O)O)C(=O)O)C(=O)O)C(=O)O)NC(=O)[C@@H](NC(=O)[C@H](Cc1ccccc1)NC(=O)[C@H](CC(=O)O)NC(=O)[C@H](CCCNC(=N)N)NC(=O)[C@H](C)NC(=O)[C@H](CCCNC(=N)N)NC(=O)[C@H](CCCNC(=N)N)NC(=O)[C@H](CO)NC(=O)[C@H](CCC(=O)O)NC(=O)[C@H](CC(C)C)NC(=O)[C@H](Cc1ccc(O)cc1)NC(=O)[C@H](CCCCN)NC(=O)[C@H](CO)NC(=O)[C@H](Cc1ccc(O)cc1)NC(=O)[C@H](CC(=O)O)NC(=O)[C@H](CO)NC(=O)[C@@H](NC(=O)[C@H](Cc1ccccc1)NC(=O)[C@@H](NC(=O)CNC(=O)[C@H](CCC(N)=O)NC(=O)C(C)(C)NC(=O)[C@@H](N)Cc1c[nH]cn1)[C@@H](C)O)[C@@H](C)O)C(C)C)C(=O)N[C@@H](CO)C(=O)N[C@H](C(N)=O)[C@@H](C)O
notes: also called Chem. 11; Chem 11
GLP-1R EC50 (pM) [Assay (I)(a)], CRE luciferase reporter, BHK cells [1]: 8 pM
GlucagonR EC50 (pM), [Assay (I)(b)], CRE luciferase reporter, BHK cells [2]: 428 pM
IC50 [3]: 0.5 nM
IC50 [4]: 52 nM

Continued, values first:

GLP-1R EC50 (pM) [Assay (I)(a)], CRE luciferase reporter, BHK cells [1]: 29 pM
GlucagonR EC50 (pM), [Assay (I)(b)], CRE luciferase reporter, BHK cells [2]: 108 pM
IC50 [3]: 2.8 nM
IC50 [4]: 95.9 nM
B2: N^ε24-[2-[2-[2-[[2-[2-[2-[[(4S)-4-carboxy-4-[[(4S)-4-carboxy-4-[[(4S)-4-carboxy-4-(17-carboxyheptadecanoylamino)butanoyl]amino]butanoyl]amino]butanoyl]amino]eth … (peptide)
peptide: H[Aib]QGTFTSDYSKYLDLRRARDFVK([AEEA-AEEA-γGlu-γGlu-γGlu-C18 diacid])WLIST-NH2
modifications: N-terminus assumed
SMILES: CC[C@H](C)[C@H](NC(=O)[C@H](CC(C)C)NC(=O)[C@H](Cc1c[nH]c2ccccc12)NC(=O)[C@H](CCCCNC(=O)COCCOCCNC(=O)COCCOCCNC(=O)CC[C@H](NC(=O)CC[C@H](NC(=O)CC[C@H](NC(=O)CCCCCCCCCCCCCCCCC(=O)O)C(=O)O)C(=O)O)C(=O)O)NC(=O)[C@@H](NC(=O)[C@H](Cc1ccccc1)NC(=O)[C@H](CC(=O)O)NC(=O)[C@H](CCCNC(=N)N)NC(=O)[C@H](C)NC(=O)[C@H](CCCNC(=N)N)NC(=O)[C@H](CCCNC(=N)N)NC(=O)[C@H](CC(C)C)NC(=O)[C@H](CC(=O)O)NC(=O)[C@H](CC(C)C)NC(=O)[C@H](Cc1ccc(O)cc1)NC(=O)[C@H](CCCCN)NC(=O)[C@H](CO)NC(=O)[C@H](Cc1ccc(O)cc1)NC(=O)[C@H](CC(=O)O)NC(=O)[C@H](CO)NC(=O)[C@@H](NC(=O)[C@H](Cc1ccccc1)NC(=O)[C@@H](NC(=O)CNC(=O)[C@H](CCC(N)=O)NC(=O)C(C)(C)NC(=O)[C@@H](N)Cc1c[nH]cn1)[C@@H](C)O)[C@@H](C)O)C(C)C)C(=O)N[C@@H](CO)C(=O)N[C@H](C(N)=O)[C@@H](C)O
notes: also called Chem. 12; Chem 12

GLP-1R EC50 (pM) [Assay (I)(a)], CRE luciferase reporter, BHK cells [1]: 4 pM
GlucagonR EC50 (pM), [Assay (I)(b)], CRE luciferase reporter, BHK cells [2]: 7 pM
IC50 [4]: 1.7 nM
Binder: H[Aib]QGTFTSDLSKYLDARRARDFVQWLIK([γGlu-γGlu-γGlu-C18 diacid])T-NH2 (also called Chem. 15; Chem 15)
